Source: paper PMC5650642

How the values were obtained:
[1] = biological target: T1, His-OpaR (Vibrio parahaemolyticus RIMD2210633) (UniProt Q79YV4); assay: DNase I footprinting
T1 sequence: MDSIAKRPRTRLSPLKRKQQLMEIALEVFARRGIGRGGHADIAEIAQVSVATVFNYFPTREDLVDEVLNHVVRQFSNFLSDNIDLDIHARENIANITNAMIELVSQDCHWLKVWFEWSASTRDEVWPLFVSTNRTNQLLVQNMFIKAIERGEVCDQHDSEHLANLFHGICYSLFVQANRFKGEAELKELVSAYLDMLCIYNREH

[2] = biological target: His-ToxR (Vibrio parahaemolyticus RIMD2210633) (UniProt Q05938); assay: DNase I footprinting
Sequence of UniProt Q05938 (Q05938 1-176): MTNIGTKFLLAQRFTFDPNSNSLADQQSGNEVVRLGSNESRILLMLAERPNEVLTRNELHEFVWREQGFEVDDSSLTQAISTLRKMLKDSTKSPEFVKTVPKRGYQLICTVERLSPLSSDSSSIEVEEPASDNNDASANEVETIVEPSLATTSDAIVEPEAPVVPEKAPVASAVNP

Sequence	binding [1]	binding [2]
ACACTTTGCACTCTTTTATGGAACAAATATTATTAGACCGAAATAATATTTGCTGAAACATCCTTGTTTCAAGGGTAGTATTTAAAACGAACAGTAAGCCTATTATTTTAGTTATAATTACTAAGTTATTAGACTCTTTGACTTACGCTTTCACTACCTGAATTACGTTGTTTTAGAAATTAAAATTTCAACAACGTAATATGACTTCATTTTCATTATATATTTCGACAAAGAATGATTAGCACGC (double strand) [VP1400 footprinting fragment]	binds	binds
ATTCTCCACAACCAACATCGTAAACATGGTTGCGGTGACGTTTAAGCTGATAAGGCTTACAAGTACGATTTGGTGTGCTAATGCTACTAATTTAATTCATAACATTCAATCACATAGAAAACTTCCAGAAAACCGAAATGCCCGAGAAATAACAAAACCACAGGTTATTTGGTTGTTTTAACTATCAATTCAAACTTATTACCCTTCAATCCAACTCAAAAGGCAGGCTTTAAGCAAAAACAGTTTTTTACTTTTGGGCAGAAGTTAACAAATTCAA (double strand) [VP1388 footprinting fragment]	binds	–
CGCTTGGATTACTTTCATCGATCGGTCTTCTTGTGAAGTCGCTGAAAAACATAATGTTAAGTTCCAACTGAGTTGATAATAAAATAATAAAGATAGATTTTTTTATTGTATTCGCCTGCTATGCCAAATGACATGCAATGCATTTTTTCTGATTTTATAGATAAAAAAAGATTTTTAGACAATAAAAAGCCGATAAATCTAATTAAAATCCATTTTGTGTGATCTTTGTTCCTAAT (double strand) [VP1409 footprinting fragment(s)]	binds	binds
